# Measured values from patent US10766952B2, “Methods for reducing migraine frequency in a subject in need thereof” (Beth Israel Deaconess Medical Center, Inc., priority 2017, dated 2020).
# Tests used:
# [1] = molecular target: T1, human α-CGRP fragments and variants (Homo sapiens, UniProt P06881); assay: Biacore affinity of G1 Fab to human α-CGRP fragments and variants on chip; format: binding; settings: CGRP on chip: 38A (25-38A), 37° C.
# T1 construct: host or cells: synthetic peptides
# Experimental: Biacore assay for affinity determination. […] All Biacore assays were conducted in HBS-EP running buffer (10 mM HEPES pH 7.4, 150 mM NaCl, 3 mM EDTA, 0.005% v/v polysorbate P20). CGRP surfaces were prepared by diluting the N-biotinylated CGRP to a concentration of less than 0.001 mg/mL into HBS-EP buffer and injecting it across the SA sensor chip using variable contact times. Low capacity surfaces, corresponding to capture levels <50 response units (RU) were used for high-resolution kinetic studies, whereas high capacity surfaces (about 800 RU of captured CGRP) were used for concentration studies, screening, and solution affinity determinations. […] Samples were typically injected for lminute at 100 μL/min and dissociation times of at least 10 minutes were allowed. After each binding cycle, surfaces were regenerated with 25 mM NaOH in 25% v/v ethanol, which was tolerated over hundreds of cycles. An entire titration series (typically generated in duplicate) was fit globally to a 1:1 Langmuir binding model using the BlAevaluation program. This returned a unique pair of association and dissociation kinetic rate constants (respectively, kon and koff) for each binding interaction, whose ratio gave the equilibrium dissociation constant (KD=koff/[…]).
# [2] = test system: central trigeminovascular neurons in the medullary dorsal horn; assay: Activation of central trigeminovascular neurons by picrotoxin-induced seizure; format: in vivo, rat; settings: 30 mg/kg intravenously four hours before induction of seizure
# Source text: Cortical electrodes were used to trace the magnitude, extent and progression of epileptiform seizures.
# Surgical preparation and single-unit recording. Single-unit recordings were obtained from neurons in the trigeminal ganglion and dorsal horn as described in previous studies (Burstein et al. (1998) J. Neurophysiol. 79: 964-82; Strassman and Levy (2006) J. Neurophysiol. 95: 1298-306; Strassman et al. (1996) Nature 384: 560-4; Zhang et al. (2010) J. Neurosci. 30: 8807-14; and Zhang et al. (2011) Ann. Neurol. 69: 855-65). Experiments were done in adult Sprague-Dawley rats (250 g to 350 g). Animals were anesthetized with urethane (1.2-1.5 g/kg), artificially ventilated with oxygen, and paralyzed. Body temperature was controlled, and end-tidal CO2 and oxygen saturation was monitored. For ganglion recordings, four separate craniotomies were made: over the contralateral cortex, to advance the microelectrode; over the ipsilateral parietal cortex, and the ipsilateral occipital cortex, for application of the picrotoxin and recording of electrocorticogram activity; and over the ipsilateral transverse sinus, for electrical and mechanical stimulation of dural afferents, and lidocaine application. For dorsal horn recording, the same craniotomies were made over the ipsilateral cortex and the ipsilateral transverse sinus, but no contralateral craniotomy was made. Instead, a laminectomy was made to expose the upper cervical spinal cord (C1-2) for microelectrode recording. In both the trigeminal ganglion and the dorsal horn recording experiments, the search stimulus for finding dura-sensitive neurons is single-shock electrical stimulation applied to the dura covering the transverse sinus.
# Seizure induction and electrocorticogram recording. […] For verification of seizure induction, cortical activity was recorded with a glass micropipette (0.9% saline, ˜1 megohm, 7 μm tip) placed just below the surface of the cerebral cortex, at the parietal and the occipital site. […]
# [3] = test system: first-order trigeminovascular neurons (A-delta and C-type meningeal nociceptors); assay: Single-unit recording of first-order trigeminovascular neurons in the trigeminal ganglion activated by CSD; format: in vivo, rat
# Experimental: CSD was induced by pinprick 4 hours after drug/isotype infusion.
molecule,measurement,setting,value
"fremanezumab (antibody, humanized anti-CGRP antagonist antibody, vectors ATCC PTA-6867 and PTA-6866) heavy: EVQLVESGGGLVQPGGSLRLSCAASGFTFSNYWISWVRQAPGKGLEWVAEIRSESDASATHYAEAVKGRFTISRDNAKNSLYLQMNSLRAEDTAVYYCLAYFDYGLAIQNYWGQGTLVTVSSASTKGPSVFPLAPCSRSTSESTAALGCLVKDYFPEPVTVSWNSGALTSGVHTFPAVLQSSGLYSLSSVVTVPSSNFGTQTYTCNVDHKPSNTKVDKTVERKCCVECPPCPAPPVAGPSVFLFPPKPKDTLMISRTPEVTCVVVDVSHEDPEVQFNWYVDGVEVHNAKTKPREEQFNSTFRVVSVLTVVHQDWLNGKEYKCKVSNKGLPSSIEKTISKTKGQPREPQVYTLPPSREEMTKNQVSLTCLVKGFYPSDIAVEWESNGQPENNYKTTPPMLDSDGSFFLYSKLTVDKSRWQQGNVFSCSVMHEALHNHYTQKSLSLSPGK light: EIVLTQSPATLSLSPGERATLSCKASKRVTTYVSWYQQKPGQAPRLLIYGASNRYLGIPARFSGSGSGTDFTLTISSLEPEDFAVYYCSQSYNYPYTFGQGTKLEIKRTVAAPSVFIFPPSDEQLKSGTASVVCLLNNFYPREAKVQWKVDNALQSGNSQESVTEQDSKDSTYSLSSTLTLSKADYEKHKVYACEVTHQGLSSPVTKSFNRGEC",KD,[1],No binding
same,neurons activated by the seizure,[2],15%
same,neurons activated by the seizure (activated/tested),[2],2/13
same,activation of central trigeminovascular neuron by seizure,[2]; FIG. 24,prevented the activation of a central trigeminovascular neuron
same,activation of meningeal nociceptors by CSD,[3]; FIGS. 20A and 20B,prevents the activation of most a-delta and some C-type meningeal nociceptors
same,a-delta fibers activated by CSD,"[3]; male rats, 30 mg/kg IV 4 hours before CSD, FIG. 21A",14%
same,C-fibers activated by CSD,"[3]; male rats, 30 mg/kg IV 4 hours before CSD, FIG. 21B",23%
same,neurons tested that were activated by CSD,"[3]; male rats, 30 mg/kg IV 4 hours before CSD, all neurons",20%
